Data on four molecules can be found in publication PMC4771712, “Deciphering Mode of Action of Functionally Important Regions in the Intrinsically Disordered Paxillin (Residues 1-313) Using Its Interaction with FAT (Focal Adhesion Targeting Domain of Focal Adhesion Kinase)” (PLoS ONE, 2016).

Experiment [1] concerns the target T1, GST fusion of the FAT (focal adhesion targeting) domain of focal adhesion kinase, human FAK 892-1052 (human, UniProt Q05397 892-1052).
T1 construct: focal adhesion kinase (FAK), human, FAT domain, residues 892-1052; Cloned into pGEX4T1; For the pull-down provided by Dr. M. K. Hoellerer; for bio-layer interferometry the same construct was synthesised (GeneArt) and made by the same procedure; also called GST-FAT; GST labeled FAT; source: E. coli BL21 (DE3), purified using GST-4B beads
T1 sequence (looked up): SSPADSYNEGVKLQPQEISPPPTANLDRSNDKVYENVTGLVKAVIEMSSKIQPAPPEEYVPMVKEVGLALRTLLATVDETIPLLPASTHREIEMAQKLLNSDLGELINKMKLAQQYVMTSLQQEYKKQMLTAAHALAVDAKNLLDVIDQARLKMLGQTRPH
In words: BLI; GST-FAT immobilised on Anti-GST biosensors (20 μg/ml in PBS), paxillin constructs as analytes in PBS with Tween 20 (0.05%) and BSA (1%), Octet RED96, global fitting (B2 1:1 model, C35_1 to C35_3 2:1 model). Conditions: both partners purified. On the technique in general: Biolayer interferometry detects binding as a change in optical thickness at a sensor tip.

Experiment [2] has as its target T1, GST fusion of the FAT (focal adhesion …). The experiment is described as above. To be noted: both partners purified. The source holds these as a separate data set.

B1: paxillin Construct C35_3 (105-189) (domain or fragment, human, UniProt P49023-2 105-189, looked up)
chain: GSPCSRVGEEEHVYSFPNKQKSAEPSPTVMSTSLGSNLSELDRLLLELNAVQHNPPGFPADEANSSPPLPGALSPLYGVPETNSP
notes: human paxillin residues 105-189; Cloned into pET28a; source: E. coli BL21DE3, purified
Turning to B1, in experiment [1], the affinity, expressed as Kd, was 1.45 µM; the koff – broadly, the rate constant with which the complex falls apart – was 0.106 s⁻¹; the kon (in general, the second-order rate constant of association) was determined as 72900 M⁻¹ s⁻¹. In addition, in experiment [2], the stoichiometry N (in general, the number of molecules, sites or subunits per partner or assembly) turned out to be 2 construct per FAT.

B2: paxillin Construct C35_1 (54-189) (domain or fragment, human, UniProt P49023-2 54-189, looked up)
chain: SSEALNGTILDPLDQWQPSSSRFIHQQPQSSSPVYGSSAKTSSVSNPQDSVGSPCSRVGEEEHVYSFPNKQKSAEPSPTVMSTSLGSNLSELDRLLLELNAVQHNPPGFPADEANSSPPLPGALSPLYGVPETNSP
notes: human paxillin residues 54-189; Cloned into pET28a; source: E. coli BL21DE3, purified
For the molecule B2, in experiment [1], the Kd (as a rule, the equilibrium constant for the complex coming apart) worked out at 5.39 µM; the koff is 0.121 s⁻¹; the association rate constant (kon) worked out at 22500 M⁻¹ s⁻¹. Further, the “stoichiometry N” value in experiment [2] came to 2 construct per FAT.

B3: paxillin construct B2, expressed in E. coli for bio-layer interferometry (domain or fragment)
chain: SSEALNGTILDPLDQWQPSSSRFIHQQPQSSSPVYGSSAKTSSVSNPQDSVGSPCSRVGEEEHVYSFPNKQKSAEPSPTVMSTSLGSNLSELDRLLLELNAVQHNPPGFPADEANSSPPLPGALSPLYGVPETNSPLGGKAGPLTKEKPKRNGGRGLEDVRPSVESLLDELESSVPSPVPAITVNQGEMSSPQRVTSTQQQTRISASSATRELDELMASLSDFKFM
In experiment [1], B3 came in with a Kd of 0.0361 µM, a koff of 0.00171 s⁻¹ and a kon of 47500 M⁻¹ s⁻¹. Further, the “stoichiometry N” value in experiment [2] amounted to 1 construct per FAT.

B4: paxillin Construct C35_2 (79-189) (domain or fragment, human, UniProt P49023-2 79-189, looked up)
chain: QQPQSSSPVYGSSAKTSSVSNPQDSVGSPCSRVGEEEHVYSFPNKQKSAEPSPTVMSTSLGSNLSELDRLLLELNAVQHNPPGFPADEANSSPPLPGALSPLYGVPETNSP
notes: human paxillin residues 79-189; Cloned into pET28a; source: E. coli BL21DE3, purified
In experiment [1], B4 came in with a Kd of 16.9 µM, a koff of 0.164 s⁻¹ and a kon of 9710 M⁻¹ s⁻¹. Besides, the “stoichiometry N” value in experiment [2] stood at 2 construct per FAT.
